One protein from paper PMC9565474, “Evolution avoids a pathological stabilizing interaction in the immune protein S100A9” (Proceedings of the National Academy of Sciences of the …, 2022) can be followed below.

The data set deals with the molecule itself. Nature of the data set: NMR structure; calcium-bound hS100A9/M63F, 0.5 to 1.0 mM dimer, 25 mM Tris, 100 mM NaCl, 10 mM CaCl2 (pH 7.4), 10% D2O, 25 °C or 37 °C; homodimer with chains A and B.

B1: hS100A9/M63F (natural protein, human, UniProt P06702 1-114, looked up)
chain: MTSKMSQLERNIETIINTFHQYSVKLGHPDTLNQGEFKELVRKDLQNFLKKENKNEKVIEHIFEDLDTNADKQLSFEEFIMLMARLTWASHEKMHEGDEGPGHHHKPGLGEGTP
notes: human S100A9, Uniprot P06702, Cys-free (C3S) background with M63F; 114 residues (residues 1 to 114 named in the NMR structure); 15N or 15N/13C labelled for NMR; also called human S100A9 M63F; F/F
Consider B1, for which the binding result is given as “binds”.
